Reference: patent publication US7910330

Biological target: native Pf AMA-1 on P. falciparum parasites (strain not specified) (Plasmodium falciparum)
Assay: cell-based or functional assay

Substance: rat monoclonal antibody 4G2
- inhibition of invasion: 50 to 60%
